{
  "source": "paper PMC7728236",
  "about": "(PLoS Pathogens, 2020)",
  "proteins": {"B1": {"name": "full-length hemagglutinin (HA) of influenza virus A/Hong Kong/1/1968 (H3N2), trypsin-cleaved into HA1/HA2 (natural protein)", "chain 1": "not shown", "chain 2": "not shown", "notes": "copies: 3 + 3"}},
  "molecular_target": "the molecule itself",
  "test": "cryo-EM structure",
  "data": [
    {"protein": "B1", "values": [
      {"measurement": "stoichiometry N", "result": 3}
    ]}
  ]
}
